pIC50, pKd: −log10 of the molar value.
Legend:
HLA-A*68:02 = assay: IEDB peptide-MHC binding, purified MHC/competitive/fluorescence; filed as Kd, often an IC50 or EC50 that approximates it; ≥ and ≤ were set here for values at or beyond the usual limits of such assays; conditions: source organism: Bacillus anthracis str. A0488
HLA-B*15:03 = assay: IEDB peptide-MHC binding, purified MHC/competitive/radioactivity; filed as Kd, often an IC50 or EC50 that approximates it; ≥ and ≤ were set here for values at or beyond the usual limits of such assays
HLA-B*15:01 [1] = assay: as above
HLA-A*32:01 = assay: as above
HLA-B*08:01 = assay: as above; conditions: source organism: Vaccinia virus WR
HLA-A*30:01 = assay: as above; conditions: source organism: Vaccinia virus WR
HLA-B*57:01 = assay: as above
HLA-B*58:01 = assay: as above
HLA-A*02:12 = assay: IEDB peptide-MHC binding, purified MHC/direct/fluorescence; filed as Kd, often an IC50 or EC50 that approximates it; ≥ and ≤ were set here for values at or beyond the usual limits of such assays; conditions: source organism: Hantaanvirus CGRn93P8
HLA-A*02:19 = assay: as above; conditions: source organism: Hantaanvirus CGRn93P8
HLA-A*02:01 = assay: as above; conditions: source organism: Orthohantavirus hantanense
HLA-A*02:11 = assay: as above; conditions: source organism: Hantaanvirus CGRn93P8
HLA-A*03:01 = assay: IEDB peptide-MHC binding, purified MHC/competitive/fluorescence; filed as Kd, often an IC50 or EC50 that approximates it; ≥ and ≤ were set here for values at or beyond the usual limits of such assays
HLA-A*11:01 = assay: IEDB peptide-MHC binding, purified MHC/competitive/fluorescence; ≥ and ≤ were set here for values at or beyond the usual limits of such assays
HLA-A*30:02 = assay: IEDB peptide-MHC binding, purified MHC/competitive/radioactivity; filed as Kd, often an IC50 or EC50 that approximates it; ≥ and ≤ were set here for values at or beyond the usual limits of such assays; conditions: source organism: Dengue virus 2 Jamaica/1409/1983
HLA-A*01:01 = assay: as above; conditions: source organism: Dengue virus 2 Jamaica/1409/1983
HLA-A*29:02 = assay: IEDB peptide-MHC binding, purified MHC/competitive/fluorescence; filed as Kd, often an IC50 or EC50 that approximates it; ≥ and ≤ were set here for values at or beyond the usual limits of such assays
HLA-B*15:01 [2] = assay: as above; conditions: source organism: Yersinia pestis Nepal516
HLA-B*35:01 = assay: as above; conditions: source organism: Yersinia pestis Nepal516
HLA-A*24:02 = assay: IEDB peptide-MHC binding, purified MHC/competitive/radioactivity; filed as Kd, often an IC50 or EC50 that approximates it; ≥ and ≤ were set here for values at or beyond the usual limits of such assays; conditions: source organism: Dengue virus 1 Singapore/S275/1990
[3] = source organism: Vaccinia virus WR
[4] = source organism: Dengue virus 1 Brazil/97-11/1997
[5] = source organism: Pan troglodytes
[6] = source organism: Dengue virus 4 Philippines/H241/1956
[7] = source organism: Vaccinia virus
[8] = source organism: Dengue virus 2 Jamaica/1409/1983
[9] = source organism: Dengue virus 1 Singapore/S275/1990
[10] = source organism: Vaccinia virus Copenhagen

SSIIKTFVV
pKd (HLA-A*68:02): 7.75

VMVTSKPLF
pKd (HLA-B*15:03; [3]): 8.06 | pKd (HLA-B*15:01 [1]; [3]): 7.80 | pKd (HLA-A*32:01; [3]): 4.74 | pKd (HLA-B*08:01): 5.45 | pKd (HLA-A*30:01): 4.81

KQIQKVETW
pKd (HLA-B*57:01; [4]): 6.34 | pKd (HLA-A*32:01; [4]): 7.31 | pKd (HLA-B*58:01; [4]): 8.32

YRAVVPLVY
pKd (HLA-B*57:01; [5]): 4.90 | pKd (HLA-B*58:01; [5]): 5.82

TLAQSLIDV
pKd (HLA-A*02:12): 8.40 | pKd (HLA-A*02:19): 8.22 | pKd (HLA-A*02:01): ≥ 9.00 | pKd (HLA-A*02:11): 8.70

ATMATRRGY
pKd (HLA-A*03:01; source organism: Escherichia coli): 6.90

ATGPVLTLW
pKd (HLA-B*57:01; [6]): 8.61 | pKd (HLA-B*58:01; [6]): 9.37

MMVSTENNL
pKd (HLA-B*15:03; [3]): 7.96

VGVVVSTNR
pIC50 (HLA-A*11:01; [7]): 4.67

RSLIGNEEY
pKd (HLA-A*30:02): ≤ 4.52 | pKd (HLA-A*01:01): 5.17 | pKd (HLA-B*58:01; [8]): 7.57

YMYIMKLHH
pKd (HLA-A*29:02; source organism: Mycobacterium leprae): 7.44

SIPLGVIHN
pIC50 (HLA-A*11:01; source organism: Zaire ebolavirus): ≤ 3.80

SIYFLRGNH
pKd (HLA-A*03:01; source organism: Entamoeba histolytica HM-1:IMSS): ≤ 4.70

ILVPNINIL
pKd (HLA-B*15:03; [3]): 6.22

NSYTLLLAY
pKd (HLA-B*15:01 [2]): 6.17 | pKd (HLA-B*35:01): 7.31

KQIQRVETW
pKd (HLA-B*57:01; [9]): 7.36 | pKd (HLA-B*15:01 [1]; [9]): 7.17 | pKd (HLA-A*32:01; [9]): 7.68 | pKd (HLA-A*24:02): 5.07 | pKd (HLA-B*58:01; [9]): 7.97

VSRLFWYGY
pKd (HLA-A*29:02; source organism: Bacillus anthracis str. A0488): 7.12

NKVLCISFF
pKd (HLA-B*15:03; [3]): 7.38

SMIDNSHLE
pKd (HLA-A*29:02; source organism: Cryptosporidium parvum Iowa II): 7.17

KGVEYNIDK
pIC50 (HLA-A*11:01; [7]): 4.50

ATGPISTLW
pKd (HLA-B*57:01; [8]): 8.85 | pKd (HLA-B*58:01; [8]): 8.83

VTRLENLMW
pKd (HLA-B*57:01; [8]): 8.42

IKENSIYSF
pKd (HLA-B*15:03; [3]): 8.84

GTSGSPIVDR
pKd (HLA-B*57:01; [8]): 5.63

SQFTCSLAV
pKd (HLA-B*15:03; [3]): 8.83

IIFMNLYSF
pKd (HLA-B*15:03; [10]): 7.97 | pKd (HLA-A*32:01; [10]): 8.90

NVTTQSIHE
pIC50 (HLA-A*11:01; [7]): ≤ 3.83

SKYAGINIL
pKd (HLA-B*15:03; [3]): 9.57 | pKd (HLA-B*15:01 [1]; [3]): 5.25 | pKd (HLA-A*32:01; [3]): 4.79 | pKd (HLA-B*08:01): 4.79 | pKd (HLA-A*30:01): 6.26

YQTSVSQVA
pKd (HLA-B*15:03; [3]): 8.84

From the Immune Epitope Database (IEDB)
